# Assay results reported in the nanobody polyreactivity screen of Harvey et al. (2022).
# Test: yeast display, Sf9 membrane polyspecificity reagent, FACS + sequencing; frameworks hold sequencing errors
# How it was run: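 A synthetic nanobody library was expressed on Saccharomyces cerevisiae BJ5465 by galactose induction for 36–48 hours. The library was stained for 1 hour at 4 °C with 10% biotinylated, detergent-solubilized Sf9 membrane reagent and enriched with streptavidin microbeads before FACS. Low and high (top ~1%) gates were set on anti-HA fluorescence for expression and streptavidin fluorescence for reagent binding, and each polyreactivity label reflects the gate of origin.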
row,Sequence,polyreactivity (PSR sort gate)
1,QVQLVESGGGLVQAGGSLRLSCAASGIIFSSYAMGWYRQAPGKERELVAAITYNGGRTYYADSVKGRFTISRDNAKNTVYLQMNSLKPEDTAVYYCAARTYGGNVLRLDYWGQGTQVTVSS,high polyreactivity
2,QVQLVESGGGLVQAGGSLRLSCAASGIIFSWYAMGWYRQAPGKEREFVAAISKSGGRTYYADSVKGRFTISRDNAKNTVYLQMNSLKPEDTAVYYFATGISRDYIYIILRYDYWGQGTQVTVSS,low polyreactivity
3,QVQLVESGGGLVQAGGSLRLSCAASGIIFSYNAMGWYRQAPGKERELVAANNSSGGSTNYADSVKGRFTISRDNAKNTVYLQMNSLKPEDTAVYYCAARDATYYGVWRYYGIDDYWGQGTQVTVSS,low polyreactivity
4,QVQLVESGGGLVQAGGSLRLSCAASGIIFSYYALGWYRQAPGKERELVAAITRGGGRTYYADSVKGRFTISRDNAKNTVSLQMNSLKPEDTAVYYCNALSRYVENDYWGQGTQVTVSS,high polyreactivity
5,QVQLVESGGGLVQAGGSLRLSCAASGIIFSYYAMGWYRQAPGKERELVAAISSGGSTNYADSVKGRFTISRDNAKNTVYLQMNSLKPEDTAVYYCAPLYRDYDWIFEYWGQGTQVTVSS,low polyreactivity
6,QVQLVESGGGLVQAGGSLRLSCAASGIIFSYYAMGWYRQEPGKERELVAAIDSGGSTYYADSVKGRFTISRDNAKNTVYLQMNSLKPEDTAVYYCNADTARGVPVFPHDYWGQGTQVTVSS,low polyreactivity
7,QVQLVESGGGLVQAGGSLRLSCAASGIIFTDYAMGWYRQAPGKERELVAAISSGGGSTYYADSVKGRFTISRDNAKNTVYLQMNSLKPEDTAVYYCAAEGYLISGAGDYLYDYYWGQGTQVTVSS,high polyreactivity
8,QVQLVESGGGLVQAGGSLRLSCAASGIIFTINAMGWYRQAPGKERELVAAISWGTGTTYYADSVKGRFTISRDNAKNTVYLQINSLKPEDTAVYYCAADGYDTYGYWGQGTQVTVSS,low polyreactivity
9,QVQLVESGGGLVQAGGSLRLSCAASGIIFTINAMGWYRQAPGKERELVARISRSVGSTTYADSVKGRFTISRDNAKNTVYLQMNSLKPEDTAVYYCAAQPYGYSYHYHRPWGLDYWGQGTQVTVSS,low polyreactivity
10,QVQLVESGGGLVQAGGSLRLSCAASGIIFTIYTMGWYRQAPGKERELVAAITRSGGSTYYADSVKGRFTISRDNAKNTVYLQMNSLKPEDTAVYYCAAEWQYPDGDDVGSWRYYYWGQGTQVTVSS,high polyreactivity
11,QVQLVESGGGLVQAGGSLRLSCAASGIIFTTYDMGWYRQAPGKERELVAAISSSTTNTYYADSVKGRFTISRDNAKNTVYLQMNSLKPEDTAVYYCAADGYSLDRYEYWGQGTQVTVSS,low polyreactivity
12,QVQLVESGGGLVQAGGSLRLSCAASGIIFTYAMGWYRPAPGKERELVAAIDWRGGRTYYADSVKGRFTISRDNAKNTVYLQMNSLKPEDTSVYYCGARLPGGTYYWGQGTQVTVSS,high polyreactivity
13,QVQLVESGGGLVQAGGSLRLSCAASGIIFTYAMGWYRQAPGKERELVAAIDWRGGRTYYADSVKGRFTISRDNAKNNVYLQMNSLKPEDTAVFFCAARLPGGTYYWGQGTQVTVSS,high polyreactivity
14,QVQLVESGGGLVQAGGSLRLSCAASGIIFVDYAMGWYRQAPGKEREFVAAITWSGGSTRYADSVKGRFTISRDNAKNTVYLQMNSLKPEDTAVYYCAALGYNVSSRGYYYWGQGTQVTVSS,low polyreactivity
15,QVQLVESGGGLVQAGGSLRLSCAASGIIFVENPMGWYRQAPGKERELVATITSGDTTNYADSVKGRFTISRDNAKNTVYLHMNSLKAEDTAVYYCAAERYEDFTEYDYWGQGTQVTVSS,low polyreactivity
16,QVQLVESGGGLVQAGGSLRLSCAASGIIFVRNARGWSRQAPGKERELVAAITGRGVSTYYADSVKGRFTISRDNAKNTVYLQMNSLNQEDTAVYYGAARYSSRGTYPRRYDYWGQGTQVTVSS,high polyreactivity

row,Sequence,polyreactivity (PSR sort gate)
1,QVQLVESGGGLVQAGGSLRLSCAASGIIFVYYAMGWYRQAPGKERELVAAINWSGGSTYYADSVKGRFTISRDNAKNTVYLQMNSLKPEDTAVYYCAASSYITSDQRFYYWGQGTQVTVSS,high polyreactivity
2,QVQLVESGGGLVQAGGSLRLSCAASGIIFVYYDMGWYRQAPGKERELVASISRGGSTYYADSVKGRFTISRDNAKNTVYLQMNSLKPEDTAVYYCAAVPSYLGYWGQGTQVTVSS,high polyreactivity
3,QVQLVESGGGLVQAGGSLRLSCAASGIIFWKYAMGWYRQAPGKERELVAAISSRGGSTYYADSVKGRLTISRDNAKNTVYLQMNSLKPEDTAVYYCAGEDWYYGFDYWRQGTQVTVSS,high polyreactivity
4,QVQLVESGGGLVQAGGSLRLSCAASGIIFWYNARGWYRQAPGKERELVASISTGGRTYYADSVKGRFTISRDNAKNTVYLQMNSLKPEDTAVYYCAAASRVGFLYYYWGQGTQVTVSS,low polyreactivity
5,QVQLVESGGGLVQAGGSLRLSCAASGIIFWYYAMGWYRQAPGKERELVAAISSGGSTTYADSVKGRFTISRDNAKNTVYLQMNSLKPEDTAVYYCAAVWLSLFKVWVDTHEYDYWGQGTQVTVSS,low polyreactivity
6,QVQLVESGGGLVQAGGSLRLSCAASGIIFWYYAMGWYRQAPGKERELVASIDWSGGSTYYADSVKGRFTISRDNAKNTVYLQMKSLKPEDTAVYDCNAGSDIYWSAATYGYWGQGTQVTVSS,high polyreactivity
7,QVQLVESGGGLVQAGGSLRLSCAASGIIFYDNAMGWYRKAPGKERELVATITRSGDSTYYADSVKGRFTISRDNAKNTVYLQMNSLKPEDTAVYYCAKDTYGVLAYFQVSREYWGQGTQVTVSS,low polyreactivity
8,QVQLVESGGGLVQAGGSLRLSCAASGIIFYFYAMGWSRQAPGKERELVAAISSGGGSTYYADSVKGRFTISRDNAKNTVYLQMNSLKPEDTAVYYCAAKIGRNFDWGQGTQVTVSS,high polyreactivity
9,QVQLVESGGGLVQAGGSLRLSCAASGIIFYKNVMGWYRQAPGKERELVAAINRSGGRTYYADSVKGRFTISRDNAKNTVYLQMNSLKPEDTAVYYCARSGTVFGRTYDYWGQGTQVTVSS,high polyreactivity
10,QVQLVESGGGLVQAGGSLRLSCAASGIIFYLYTIGWYRQAPGKEREFVADISSGTTTYYADSVKGRFTISRDNAKNTVYLQMNSLKPEDTAVYYCNAQYNYYTWKLAYTFDYWGQGTQVTVSS,high polyreactivity
11,QVQLVESGGGLVQAGGSLRLSCAASGIIFYNKAMGWYRQAPGKERELVAAITWSDGSTYYADSVKGRFTISRDNAKTTVYLQMNSMKPEDTAVYYCARRSGDERRDGDYWGQGTQVTVSS,low polyreactivity
12,QVQLVESGGGLVQAGGSLRLSCAASGIIFYPYAMGWYRQAPGKESELVADITSGGGTNYAYSVKGRITISRDNAKNTVYLQMNSLKQEDTAVYYCAAEVRGYHWGTYYEFYYWGQGTQVTVSS,low polyreactivity
13,QVQLVESGGGLVQAGGSLRLSCAASGIIFYRNAMGWYRQAPGKERELVAGITSGGSTYYADSVKGRFTISRDNAKNTVYLQMNSLIPEDTAVYYCAAYYRASQRYLQYGYWGQGTQVNVSS,high polyreactivity
14,QVQLVESGGGLVQAGGSLRLSCAASGIIFYRYALGWYRQAPRTERELVAAISSSGTNTYYADSVKGRFTISRDNAKNTVYLQMNSLKPEDTAVYYCNADTLADRSTYDYWGQGTQVNVSS,low polyreactivity
15,QVQLVESGGGLVQAGGSLRLSCAASGIIFYRYAMGWYRQAPGKERELVATIRRSDGSTYYADSVKGRFTISRDNAKNTVYLQMKSLKPVDTAVYYCAARRPYSSGYDYWGQGSQVTVSS,high polyreactivity
16,QVQLVESGGGLVQAGGSLRLSCAASGIIFYRYAMVWYRQAPGKERELVAAITWSGVSTSYADSVKGRFTISRDNAMNTVYLQMTSLKPEDTAVYYCNKDQGTLYGDMDSWGQGTQVTVSS,low polyreactivity
